The values that follow come from US9057062B2, “Enzyme produced by Arthrobacter globiformis” (MATSUTANI CHEMICAL INDUSTRY CO., LTD., priority 2011, dated 2015).

What all share (assay type): biochemical, Arthrobacter globiformis M30
Data set [1] addresses ketose 3-epimerase (D-PE) (Arthrobacter globiformis, UniProt A0A1L7NQ96).
Substrate in data set [2]: O=C(CO)[C@@H](O)[C@H](O)[C@H](O)CO
Description: Km and Vmax of the present enzyme. Particulars: other: 30° C., in the presence of Mg2+ ions. On the procedure: (§1) The enzyme reaction was performed at 30° C. for 30 min, and the amount of the enzyme that produced 1 micromole of D-fructose in 1 min under these conditions was taken as one unit. After the reaction, the reaction mixture was put in a boiling liquid for 3 min to quench the reaction. After deionization, the product D-fructose was measured by HPLC analysis. Protein measurement was performed by using the Bradford method, using 5 μL of the enzyme liquid added to a Bradford solution (250 μl) and evenly stirred therein.
(§2) The Km and Vmax of the present enzyme for D-psicose and D-fructose were measured. The measurement was made by measuring enzyme activity at 30° C. in the presence of Mg^2+ ions.

Substrate in data set [3]: O=C(CO)[C@H](O)[C@H](O)[C@H](O)CO
Briefly: Km and Vmax of the present enzyme. The conditions noted are these: other: 30° C., in the presence of Mg2+ ions. On the procedure: as §1, §2

Take `[Mn+2]` [Mn^2+, divalent manganese ions]: the “Effect of metal ion on enzyme activity” value in data set [1] is recorded as “activatable”.
The same measure, in the same setting: then `[Co+2]` [Co^2+, divalent cobalt ions], with “activatable”.

B1: ketose 3-epimerase, purified enzyme (Arthrobacter globiformis) (protein)
chain: MKIGCHGLVWTGHFDAEGIRYSVQKTREAGFDLVEFPLMDPFSFDVQTAKSALAEHGLAASASLGLSDATDVSSEDPAVVKAGEELLNRAVDVLAELGATDFCGVIYSAMKKYMEPATAAGLANSKAAVGRVADRASDLGINVSLEVVNRYETNVLNTGRQALAYLEELNRPNLGIHLDTYHMNIEESDMFSPILDTAEALRYVHIGESHRGYLGTGSVDFDTFFKALGRIGYDGPVVFESFSSSVVAPDLSRMLGIWRNLWADNEELGAHANAFIRDKLTAIKTIELH
notes: disrupted with a high-pressure homogenizer to extract the enzyme; made in house; host or cells: Arthrobacter globiformis M30 (native producer); Purified by PEG fractionation, Q-Sepharose ion exchange and RESOURCE PHE hydrophobic chromatography
A word on the Km: it is the substrate concentration at which the rate is half of its maximum. Regarding B1, in data set [2], the Km is 31.5 mM and the Vmax was determined as 68.5 U/mg. In addition, in data set [3], the Km stood at 30.1 mM and the Vmax is on record as 168 U/mg.
